The record followed here is the nanobody polyreactivity screen of Harvey et al. (2022).

The data set can be described thus: yeast display, Sf9 membrane polyspecificity reagent, FACS + sequencing; frameworks hold sequencing errors. The essentials:
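After 36–48 hours of galactose induction, yeast (Saccharomyces cerevisiae BJ5465) displaying a synthetic nanobody library were stained at 4 °C for 1 hour with 10% biotinylated, detergent-solubilized Sf9 membrane reagent. Streptavidin microbeads enriched the stained cells before FACS sorting into low and high (top ~1%) gates on anti-HA and streptavidin fluorescence. Each clone's polyreactivity label reflects its gate of origin.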
For “QVQHAESGGGLVQAGGSLRLSCAASGSTSAKNVMGWYRQAPGKVRELVAAISRSGGRTYYADSVKGRFTISRDNAKNTVYLQMNSLNPEDTAVYYCAARSATNHADDYYYWGQGTQVTVSS”, the “polyreactivity (PSR sort gate)” value was “high polyreactivity”.

On to “QVQLVESGGGLVQAGGSLRLSCAASGITFTRNAMGWYRQAPGKERELVAVITSSGRTKYADSVKGRFTISRDNAKNTVYLQMNSLKPEDTAVYYCAKVLFGTVPYGYWGHGTQVTVSS”, for which the “polyreactivity (PSR sort gate)” value is recorded as “high polyreactivity”.

Turning to “QVQLVESGGGLVQAGGSLRLSCAASGFTFYRYAMGWYRKAPGKERELVAAISSSGGTTYYADSVKVRFTISRDHAKNTVYLQMNRLKPEDTAVYYCAARGWPNWGWGYDYWGQGTQVTVSS”, the “polyreactivity (PSR sort gate)” value is on record as “high polyreactivity”.

Turning to “QVQLVESGGGLVQAGGSLRLSCAASGSTFYRYAMGWYRQAPGKERELVAAISKRGGSTYYADSVKGRFTISRDNAKNTVYLQMNSLKPEDTAVYYCNAVGYKGTTYDYWGQGTQVTVSS”, the “polyreactivity (PSR sort gate)” value is listed as “high polyreactivity”.

Regarding “QVQLVDSGGGLVQARGSLRLTCAASGRIYNLYAMGWYRQAPGKERELVAAIRGRGTSTYYADSVKVRFTISRDKAKNTVYFQMNSLKPEDTAVYYCASEGGYGPTLQDTSRYEYWGQGTQVTVSS”, the “polyreactivity (PSR sort gate)” value is recorded as “low polyreactivity”.

As for “QVQLVESGGGLFQAGGSLRLSCAASGIIFQRNDMGWYRQAPGKERELVANIRDGGITYADSVKGRFTISRDNAKNTVYLQMNSLKPEDTAVYYCARDDTSPGYCDQSSNAAYYYWGQGTQVTVSS”, the “polyreactivity (PSR sort gate)” value is listed as “low polyreactivity”.

With “QVQLVESGGGLVQAGGSLRLSCAASGGMGWYRQAPGKERELVATISSVGSTNYADSVKGRFTISRDNAKNTVYLQMNSLKPEDTAVYYCNDTGVQYFLYAYWGQGTQVTVSS”, the “polyreactivity (PSR sort gate)” value is recorded as “low polyreactivity”.

Take “QVQLVESGGGLVQAGGSLRLSCAASGRTFGIYVMGWYRQAPGKERELVAAIRGGGTTYYADSVKGRFTISRDNANNTVYLQMNSLKPEDTAVYYCAAESRYQRYDYWGQGTQVTVSS”: the “polyreactivity (PSR sort gate)” value is “high polyreactivity”.

On to “QVQLVESGGGLVQAGGSLRLSCAASGSIFVINAMGWYRQAPGKERELVAAISYSGTGTYYADSVKGRFTISRDNAKNTVYLQMNSLKAEDTAVYYCAADFYYRYRIYDYWGQGTQVTVSS”, for which the “polyreactivity (PSR sort gate)” value was “low polyreactivity”.

On to “QVQLVESVGGLVQAGGSLRLSCAASGSIRYYAMGWYRQAPGKERELVAAISSRGTNTYYADSVKGRFTISRDNAKNTVYLQMNSLKPEDTAVYYCNAVVGLGYNYWGQGTQVTVSS”, for which the “polyreactivity (PSR sort gate)” value is “high polyreactivity”.

Turning to “QVQLVESGGGLVQAGGSLRLSCAASGRIFARYAMGWYRQAPGKERELVAAISFRGGSTYYADSVKGRFTISRDNAKNTVYLQMNSQKPEDTAVYYCNGRYGRGGYDYWGQGTQVTVSS”, the “polyreactivity (PSR sort gate)” value is on record as “high polyreactivity”.

With “QVQLVESGGGLVQAGGSLRLSCAASGSIFYIYAMGWSRQAPGKERELVASITFSGDITYYADSVKGRFTISRDNAKNTVYLQMNSLKPEDTAVYYCNTRTPYWFKSDYWGQGTQVTVSS”, the “polyreactivity (PSR sort gate)” value is “low polyreactivity”.

Regarding “QVQLVESGGGLVQAGGSLRLSCAASGLTFVANAMGWYRQAPGKERELVAAISRRGTRTYYADSVKGRFTISRDNAKNTVYLQMNSLKPEDTAVYYCAAEYNSEYDYWGQGTQVTVSS”, the “polyreactivity (PSR sort gate)” value is given as “high polyreactivity”.

For the sequence “QVQVVESGGGLVQAGGSLRLSCAASGSFFTRYAIGWYRQAPGKERELVAAISGSGGSTYYADSVKGLFTISRDNAKITVSLQMNSLKPEDTAVYYCAARDYWGQGTQVTVSS”, the “polyreactivity (PSR sort gate)” value is “high polyreactivity”.

Turning to “QVQLVESGGGLVQAGGSLRLSCAASGRIFKYYAMGWYRQSPGKERELVAAITSSGGSTYYADSVKGRFTISRDNAKNTVYLQMNRLKPEDTAVYYCAARGPKQLYPGYIYGYWGQGTQVTVSS”, the “polyreactivity (PSR sort gate)” value is given as “low polyreactivity”.

Turning to “QVRLVESGGGLVQAGGSLRLSCAASGRIFASYAMGWNRQAPGKETELVAAISKSGGRTYYADSVKGGFTISRDNAKNTVYLQMNSLKPEDTAVYYCAAYFWTRSGTPNYDYWGQGTQVTVSS”, the “polyreactivity (PSR sort gate)” value was “high polyreactivity”.

On to “QVQLVESGGGLVQAGGSLRLSSAASGFTFYLNALGGYRQAPGKERELVAAISSSGGITYYADSVKGRFTISRDNAKNTVYLQMNSLKPEYTAVYYCAAYWPKYRYEADRDYWGQGTQVTVSS”, for which the “polyreactivity (PSR sort gate)” value is recorded as “low polyreactivity”.

“QVQLVESGGGLVQAGGSLRLSCAASGSIFRKNAMGWYRQAPGKERELVAAITYRTGSTYYADSVKGRFTISRDNAKNTVYLQMNSLKPEDTAVYYCAAQTWGSGYGHIGRRRHDYWGQGTQVTVSS”: the “polyreactivity (PSR sort gate)” value is listed as “high polyreactivity”.

For the sequence “QVQLVESGGGLDQAGGSLRLSCAASGNIFRIYAMGWYRQAPGKERELVATITKRGGSTYYADSVKGRFTISRDNAKNTVYLQMNSLKPEDTAVNYCNAVTKLWYDYDYWGQGTQGTVSS”, the “polyreactivity (PSR sort gate)” value is “high polyreactivity”.

On to “QVQLVESGGGLVQAGGSLRLSCAASGRTFKRYAMGWYRQAPGKERELVAAITRSGGSTYYADSVKGRFTISRDNAKNTVYLQMNSLKPEDTAVYYCATRSYNNELEYWGQGTQVTVSS”, for which the “polyreactivity (PSR sort gate)” value is reported as “high polyreactivity”.

Regarding “QVQLVESGGGLVQAGGSLRLSCAASGRTFFPYVMGWYRQAPGKERELVATITWGGVSTYYADSVKGRFTISRDNAKNTVYLQMNSLKPEDTAVYYCAARYYRWRTIPEYYYWGQGTQVTVSS”, the “polyreactivity (PSR sort gate)” value was “high polyreactivity”.

Regarding “QVQLVESGGGLVQAGGSLRLSCAASASTFYLYAMGWYRQAPGKERELVAAISRGGTTYYADSVKGRFTISRDNEKNSVYLQMNSLKPEDTAVYYCNKLRRYSEYNADYGDYWGQGTQVTVSS”, the “polyreactivity (PSR sort gate)” value is on record as “high polyreactivity”.

For “QVQLVESGGGLVQAGGSLRLSCAASGSTLLYYAMGWYRQAPGKERELVAAINKSGGRTYYADSVKGRFTISRDNAKNTVYLQMNSLKPEDTAVYYCAVDISVTGSSNRYGYWGQGTQVTVSS”, the “polyreactivity (PSR sort gate)” value is given as “high polyreactivity”.

With “QVQLVESGGGLVQAGGSLRLSCAASGITIVNYVMGWYRQAPGKERELVAAISIGGGTYYADSVKGRFTISRDNAKNTVYLQMNSLKPEDTAVYYCNASYGGLSFYIGVYVTGYYYWGQGTQVTVSS”, the “polyreactivity (PSR sort gate)” value is recorded as “low polyreactivity”.

On to “QVQRVESGGGLFQAGGSLRLSCAASGFIFASYTMGWYRQAPGKERELVAAISRAGSTYYADSVKGRFTITRDNAKNTVYFQMNSLKPEDTAVYYCNAVSWRTSRYDYWGQGTQVTVSS”, for which the “polyreactivity (PSR sort gate)” value was “high polyreactivity”.

On to “QVQLVESGGGLVQAGGSLRLSGAASGSTCYYGMGWYRQAPGKYRELVAAISSRGGTPYYADSVKGRFTISRDNAKNTVYLQMTSLKPEDTAVDDCAAPVPYYVPRRNEGDYWGQGTQGTVSS”, for which the “polyreactivity (PSR sort gate)” value is “low polyreactivity”.

With “QVQLVESGGGLVQAGGSLRLRCAASGSIFKYYAMGWYRQAPGTERELVAAITWSGTRTYYADSVKGRFTISRDNAKNTVYVQMNSLKPEDTAVYYCNAPRYLYSAGRFNYWGQGTQVTVSS”, the “polyreactivity (PSR sort gate)” value was “high polyreactivity”.

Regarding “QVQLVESGGGLVQAGGSLRLICAASGRIFGYYAMGWYRQAPGKERELVATITFGGGSSYYADSVKGRFTISRDNAKNTVNLQMNSLKPEDTAVYYCAAVSGYLGIYGDEYSWGQGTQVTVSS”, the “polyreactivity (PSR sort gate)” value is recorded as “low polyreactivity”.

As to “QVQLVESGGGLVQAGGSLRLSCAASGNTFATYAMGWYRQAPGKERELVAGITVDGASTNYADSVKGRFTISRDNAKNTVYLQMNSLKPEDTAVYYCNADYTTQVYDSTWPGDFGYWGQGTQVTVSS”, the “polyreactivity (PSR sort gate)” value is reported as “high polyreactivity”.

On to “QVQLVESGGGLVQAGGSLRFSCAASGSIFYRNAMGWDRQAPGKEREMVAAISASSGRTYYADSVKGRFTISRDNAKNTVYLQMNSLKPEDTAVYYCAVRPYRSAGGSVTRGAYYYWGQGTQVTVSS”, for which the “polyreactivity (PSR sort gate)” value was “high polyreactivity”.
